These results are taken from paper PMC7666158.

As usually defined, the Kd is the constant that tells how readily two partners part at equilibrium. For orientation: koff means the rate constant with which the complex falls apart. Higher therefore signals fast dissociation. One may read the kon as the rate constant with which the complex forms.

Experiment [1] has as its target JNK1-dc20 (JNK1 where the C-terminal 20 residues are truncated) (human) (UniProt P45983). In words: fluorescence polarisation; competitive titration: JNK1 with CF-evJIP (50 nM; JNK1 at ~60-80% complex formation) titrated with unlabeled MBP-ATF2(19-100) constructs; data fit to a competition binding equation; 20 mM Tris pH 8.0, 100 mM NaCl, 0.05% Brij35P, 2 mM TCEP. A general note: In fluorescence polarisation assays a small probe gives low polarisation when free and higher when bound to something large.

For experiment [2], the target named is pp-JNK1 (activated, phosphorylated JNK1) (human) (UniProt P45983). Briefly: in vitro kinase assay fitted with a kinetic model; 5 nM pp-JNK or pp-p38, MBP-ATF2(19-100) substrate 0.5-100 uM, 5 mM ATP, kinase buffer; p-T71 and p-T69/T71 by quantitative dot-blots; binding rates (kon, koff) and reaction rates fitted simultaneously with the BioNetGen model (PyBioNetFit).

Experiment [3] concerns the target JNK1-dc20 (JNK1 with the C-terminal 20 residues truncated) (human) (UniProt P45983). Briefly: fluorescence polarisation; competitive: 50 nM CF-evJIP with JNK1 at ~60–80% complex, titrated with unlabeled competitor; 20 mM Tris pH 8.0, 100 mM NaCl, 0.05% Brij35P, 2 mM TCEP; 384-well plates.
For experiment [4] the target is unchanged. In words: ITC; as a5, with 2 mM EDTA. For orientation: ITC needs no label: the signal is the heat of the interaction.

Positions count from the first letter of the chain named. Names and notes keep the numbering of the source.

B1: MBP-ATF2(19-100)-WT (domain or fragment)
chain: MSDDKPFLCTAPGCGQRFTNEDHLAVHKHKHEMTLKFGPARNDSVIVADQTPTPTRFLKNCEEVGLFNELASPFENEFKKAS
For the molecule B1, the Kd in experiment [1] was 3.5 µM. In experiment [2], this molecule came in with a Kd of 3.5 µM, a koff of 19.6 s⁻¹ and a kon of 5.6e+06 M⁻¹ s⁻¹.

B2: MBP-ATF2-(19-100)-H47R (domain or fragment)
chain: B1 chain with H29R
Turning to B2, the Kd in experiment [1] stood at 0.26 µM.

B3: MBP-ATF2-(19-100)-H47E (domain or fragment)
chain: B1 chain with H29E
The molecule B3 had a Kd in experiment [1] of 39.3 µM.

B4: MBP-ATF2-(19-100)-V44A (domain or fragment)
chain: B1 chain with V26A
Regarding B4, the Kd in experiment [1] was determined as 15.5 µM.

B5: MBP-ATF2-(19-100)-V44E (domain or fragment)
chain: B1 chain with V26E
In experiment [1], B5 had a Kd of 56.2 µM.

B6: MBP-ATF2-(19-100)-Q34R (domain or fragment)
chain: B1 chain with Q16R
On to B6, for which, in experiment [1], the Kd worked out at 0.87 µM.

B7: MBP-ATF2(19–100) K48E (domain or fragment)
chain: B1 chain with K30E
Turning to B7, in experiment [3], the fold decrease in binding against the wild type is 10 fold.

B8: MBP-ATF2-(19-100)-Q34R/H47R (domain or fragment)
chain: B1 chain with Q16R, H29R
For the molecule B8, the Kd in experiment [1] is 0.05 µM. With MSDDKPFLCTAPGCGQRFTNEDHLAVHKHKHEMTLKFGPA (domain or fragment) [ATF2(19–58)-His6 (MBP removed, for ITC)], in experiment [4], the fold decrease in binding with EDTA against no EDTA amounted to 10 fold.

Molecule MSDDKPFLCTAPGCGQRFTNEDHLAVHKHKHEMTLKFGPA (domain or fragment) [ATF2(19–58) as used in the competitive fluorescence polarisation assay] came in with a Kd in experiment [3] of 5 µM.
